The target in experiment [1] is T1, CDC42Hs (human, UniProt P60953).
The target of experiment [2] is T1, CDC42Hs. Briefly: inferred from the dose response of GDI activity; reference rhoGDI.
The target in experiment [3] is rac 1 (Homo sapiens (Human)) (UniProt P63000). Described as above.
Experiment [4] deals with T1, CDC42Hs. Kind of experiment: cell-based or functional assay.
For experiment [5], the target named is CDC42Hs (human) (UniProt P60953).
For experiment [6] the target is unchanged. The source holds these as a separate data set.
For experiment [7] the target is unchanged. Kind of experiment: inferred from the dose response of GDI activity; reference rhoGDI.

In turn, human D4 protein returned a GDI activity (times more concentration than rhoGDI) in experiment [1] of more than 10. The times lower binding than rhoGDI in experiment [2] and in experiment [3] was 30 to 40 times throughout.

B1: GST-LD4 (glutathione-S-transferase fusion protein of LD4) (other)
chain: MTEKAPEPHVEEDDDDELDSKLNYKPPPQKSLKELQEMDKDDESLIKYKKTLLGDGPVVTDPKAPNVVVTRLTLVCESAPGPITMDLTGDLEALKKETIVLKEGSEYRVKIHFKVNRDIVSGLKYVQHTYRTGVKVDKATFMVGSYGPRPEEYEFLTPVEEAPKGMLAQDTYHNKSFFTDDDKQDHLSWEWNLSIKKEWTE
On to B1, for which the “apparent EC50, GDP dissociation inhibition assay” value in experiment [4] lay within 7 to 8 µM.

B2: GST-GN LC (chimera of the entire rho GDI sequence except that the carboxyl terminal 33 amino acids were from LD4) (other)
chain: MAEQEPTAEQLAQIAAENEEDEHSVNYKPPAQKSIQEIQELDKDDESLRKYKEALLGRVAVSADPNVPNVVVTGLTLVCSSAPGPLELDLTGDLESFKKQSFVLKEGVEYRIKISFRVNREIVSGMKYIQHTYRKGVKIDKTDYMVGSYGPRAEEYEFLTPVEEAPKGMLAQDTYHNKSFFTDDDKQDHLSWEWNLSIKKEWTE
In the case of B2, the “GDP dissociation inhibition assay” value in experiment [4] is ≥ 20 fold less effective than rho GDI.

B3: GST-mD4 (glutathione-S-transferase fusion protein of murine D4) (protein)
chain: MTEKDAQPQLEEADDDLDSKLNYKPPPQKSLKELQEMDKDDESLTKYKKTLLGDVPVVADPTVPNVTVTRLSLVCDSAPGPITMDLTGDLEALKKDTFVLKEGIEYRVKINFKVNKDIVSGLKYVQHTYRTGMRVDKATFMVGSYGPRPEEYEFLTPVEEAPKGMLARGTYHNKSFFTDDDKQDHLTWEWNLAIKKDWTEZ
The molecule B3 returned a GDI activity (times more concentration than rhoGDI) in experiment [5] of more than 10. The apparent EC50, GDP dissociation inhibition assay in experiment [6] fell in the range of 7 to 8 µM. The molecule further showed a times lower binding than rhoGDI in experiment [7] of 30 to 40 times.
